Source: patent publication US20210238276A1 (INTEGRAL MOLECULAR, published 2021)

How the values were obtained:
Assay in all cases: flow cytometry, alanine-scan library in HEK-293T, with cytochalasin B
hsGLUT4 M112A = molecular target: T1, hsGLUT4 M112A (human, UniProt P14672 1-509)
T1 sequence: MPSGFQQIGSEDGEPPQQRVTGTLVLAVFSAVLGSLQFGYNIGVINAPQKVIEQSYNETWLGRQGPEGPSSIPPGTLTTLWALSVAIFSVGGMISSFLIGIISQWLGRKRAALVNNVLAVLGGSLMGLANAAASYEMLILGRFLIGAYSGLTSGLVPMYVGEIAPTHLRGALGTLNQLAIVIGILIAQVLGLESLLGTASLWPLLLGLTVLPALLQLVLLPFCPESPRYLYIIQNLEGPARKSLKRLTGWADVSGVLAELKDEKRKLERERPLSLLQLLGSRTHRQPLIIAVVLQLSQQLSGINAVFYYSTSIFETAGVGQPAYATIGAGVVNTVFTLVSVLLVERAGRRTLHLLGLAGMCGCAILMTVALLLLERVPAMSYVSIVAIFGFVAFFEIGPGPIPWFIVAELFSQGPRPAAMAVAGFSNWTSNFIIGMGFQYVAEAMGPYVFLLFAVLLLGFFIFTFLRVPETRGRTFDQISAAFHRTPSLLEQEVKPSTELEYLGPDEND
Outline: (§1)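 HEK-293T cells expressing individual GLUT4 alanine mutants were stained 48 h post-transfection with anti-GLUT4 scFv MAbs (2 μg/ml), then biotinylated secondary and streptavidin-PerCP, and read by high-throughput flow cytometry. Where used, cytochalasin B (10 uM final) was given for 30 min before and during primary antibody staining.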

hsGLUT4 Y309A = molecular target: T2, hsGLUT4 Y309A (human, UniProt P14672 1-509)
T2 sequence: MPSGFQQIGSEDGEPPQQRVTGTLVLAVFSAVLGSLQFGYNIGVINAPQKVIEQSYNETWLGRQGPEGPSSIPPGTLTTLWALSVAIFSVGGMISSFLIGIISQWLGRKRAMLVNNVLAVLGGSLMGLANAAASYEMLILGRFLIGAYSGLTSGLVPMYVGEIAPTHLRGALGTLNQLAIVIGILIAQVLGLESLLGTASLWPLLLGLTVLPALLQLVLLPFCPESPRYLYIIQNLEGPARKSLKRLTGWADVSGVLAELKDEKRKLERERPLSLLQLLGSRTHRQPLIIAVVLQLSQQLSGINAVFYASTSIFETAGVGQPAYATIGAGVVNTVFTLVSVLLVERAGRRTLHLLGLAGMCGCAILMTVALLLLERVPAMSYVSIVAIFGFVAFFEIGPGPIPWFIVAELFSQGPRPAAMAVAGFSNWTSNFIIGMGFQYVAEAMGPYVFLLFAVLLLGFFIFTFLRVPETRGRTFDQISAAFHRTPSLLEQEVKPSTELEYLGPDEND
Outline: as §1

hsGLUT4 G348A = molecular target: T3, hsGLUT4 G348A (human, UniProt P14672 1-509)
T3 sequence: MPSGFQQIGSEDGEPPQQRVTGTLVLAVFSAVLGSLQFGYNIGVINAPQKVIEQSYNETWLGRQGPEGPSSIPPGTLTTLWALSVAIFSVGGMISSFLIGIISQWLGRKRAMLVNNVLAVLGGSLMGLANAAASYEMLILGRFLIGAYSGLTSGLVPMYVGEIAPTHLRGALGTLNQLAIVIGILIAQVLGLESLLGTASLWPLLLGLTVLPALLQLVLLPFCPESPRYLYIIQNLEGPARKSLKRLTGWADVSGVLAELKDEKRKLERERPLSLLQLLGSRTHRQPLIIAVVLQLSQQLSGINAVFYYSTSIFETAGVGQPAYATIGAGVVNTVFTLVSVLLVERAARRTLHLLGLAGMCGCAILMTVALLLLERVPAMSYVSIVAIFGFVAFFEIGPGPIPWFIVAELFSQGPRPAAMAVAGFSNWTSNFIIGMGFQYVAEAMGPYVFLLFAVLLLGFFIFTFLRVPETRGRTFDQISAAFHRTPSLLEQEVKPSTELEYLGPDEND
Outline: as §1

hsGLUT4 E507A = molecular target: T4, hsGLUT4 E507A (human, UniProt P14672 1-509)
T4 sequence: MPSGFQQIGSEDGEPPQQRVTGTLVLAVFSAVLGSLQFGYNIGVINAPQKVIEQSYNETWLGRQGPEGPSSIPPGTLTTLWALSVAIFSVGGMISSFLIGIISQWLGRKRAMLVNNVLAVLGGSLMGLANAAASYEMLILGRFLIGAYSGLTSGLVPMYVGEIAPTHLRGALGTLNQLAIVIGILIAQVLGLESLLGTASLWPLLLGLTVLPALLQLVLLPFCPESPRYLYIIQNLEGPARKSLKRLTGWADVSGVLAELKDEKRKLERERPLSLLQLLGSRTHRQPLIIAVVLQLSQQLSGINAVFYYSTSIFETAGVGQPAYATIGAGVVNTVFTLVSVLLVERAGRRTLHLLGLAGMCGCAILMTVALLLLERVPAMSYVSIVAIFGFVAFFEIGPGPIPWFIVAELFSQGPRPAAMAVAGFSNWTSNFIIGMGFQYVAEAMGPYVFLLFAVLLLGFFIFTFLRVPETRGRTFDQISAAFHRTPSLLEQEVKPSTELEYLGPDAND
Outline: as §1

% of binding to wild type GLUT4 (hsGLUT4 M112A): 23%
% of binding to wild type GLUT4 (hsGLUT4 Y309A): 24%
% of binding to wild type GLUT4 (hsGLUT4 G348A): 79%
% of binding to wild type GLUT4 (hsGLUT4 E507A): 97%
B1: AB102 (Fc fusion)
scFv: ALTQPSSVSANLGGTVKITCSGGGSYGYGWYQQKSPGSAPVTVIYSNDQRPSDIPSRFSGSKSGSTATLTITGVRAEDEAIYYCGSTDSDYVGIFGAGTTLTVLGQSSRSSGGGGSSGGGGSAVTLDESGGGLQTPGGTLSLVCKASGFDFSSYATIWVRQAPGKGLEWVAGISGTGTGSSTGYAPAVKGRATISRDNGQSTVRLQLNNLRAEDTGSYFCAKSTGYGDSWIYPDSIDAWGHGTEVIVSS
notes: also called MAb AB102; not shown: Fc fragment of human IgG1, cloned in frame with the scFv
